Laboratory results published in PMC11035769.

Molecular target: CD16a-His (human) (UniProt P08637)
Assay: BLI; CD16a-His (250 ng/mL) immobilised on HIS1K biosensors; analytes at 3200 - 50 nM or 400 - 6.25 nM; 1X kinetics buffer (PBS pH 7.4, 0.02% Tween-20, 0.1% bovine serum albumin); 300 s association, 600 s dissociation; 1:1 fitting model; geometric means

UniProt P08637, sequence (P08637 17-208): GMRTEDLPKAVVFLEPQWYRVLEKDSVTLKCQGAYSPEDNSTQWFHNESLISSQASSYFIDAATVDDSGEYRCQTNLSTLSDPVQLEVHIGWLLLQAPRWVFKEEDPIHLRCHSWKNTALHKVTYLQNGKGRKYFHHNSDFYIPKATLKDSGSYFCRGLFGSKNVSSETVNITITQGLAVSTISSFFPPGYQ

Kd: 244 nM | koff: 0.0402 s⁻¹ | kon: 165000 M⁻¹ s⁻¹
Substance: Immune Globulin Intravenous (Human) (antibody)
